Where a chain is given by its changes, count along the chain named.
B1: Mutation 3 (antibody, mouse IgG2b, kappa, V domains shown)
VH: QVQLQQPGAELVRPGASVKLSCKASGSSFTNYWMNWVKQRPGQGLEWIGMINPSESETRINQKFKDKATLTVDKSSSTAYMQLSSLTAEDSAVYYCAKSGDFYTSYFDYWGQGTTLTVSS
VL: DIQLTQSPASLSASVGETVTITCRGSGNLHNYIAWYQQKQGKSPQLLVYNARTIADGVPSRFSGSGSGTQYSLKINSLQPEDFGSYYCQSFWSTYTFGGGTKLEIKR
B2: Mutation 1-35 (antibody, mouse IgG2b, kappa, V domains shown)
VH: B1 VH with N52H, I60V, K98R, D101E, S105T
VL: B1 VL with I33L, S90Y
B3: WT 1-5 (antibody, mouse IgG2b, kappa, V domains shown)
VH: B1 VH with S27Y, W33F, I60V, D101E, S105T, F107W
VL: B1 VL with S26T, L29I, I54L, T94S
B4: Mutation 1-34 (antibody, mouse IgG2b, kappa, V domains shown)
VH: B1 VH with S27Y, N52H, I60L, K98R, D101E, S105Y
VL: B1 VL with S26T, I33L, I54V
B5: WT 1-2 (antibody, mouse IgG2b, kappa, V domains shown)
VH: B1 VH with S27Y, W33F, E55D, I60V, K98R, S105T, F107W
VL: B1 VL with S26T, L29V, R52K, S90Y, T94S
B6: Mutation 1-52 (antibody, mouse IgG2b, kappa, V domains shown)
VH: B1 VH with S27Y, N52H, I60L, D101E, S105T
VL: B1 VL with L29I, I33L, I54V
B7: Mutation 1-19 (antibody, mouse IgG2b, kappa, V domains shown)
VH: B1 VH with S27Y, N52H, E55D, I60L, K98R, S105Y
VL: B1 VL with L29I, I33L, R52K, I54L, S90Y
B8: Mutation 1-38 (antibody, mouse IgG2b, kappa, V domains shown)
VH: B1 VH with S27Y, N52H, E55D, I60V, S105T
VL: B1 VL with L29V, I33L, R52K, I54L, S90T
B9: Mutation 1-25 (antibody, mouse IgG2b, kappa, V domains shown)
VH: B1 VH with S27T, N52H, E55D, I60L, S105Y
VL: B1 VL with S26T, I33L, R52K
B10: Mutation 1-54 (antibody, mouse IgG2b, kappa, V domains shown)
VH: B1 VH with S27T, N52H, E55D, K98R, S105Y
VL: B1 VL with S26T, L29I, I33L, R52K, I54V
B11: Mutation 1-36 (antibody, mouse IgG2b, kappa, V domains shown)
VH: B1 VH with S27T, N52H, E55D
VL: B1 VL with I33L, R52K, I54V
B12: Mutation 1-48 (antibody, mouse IgG2b, kappa, V domains shown)
VH: B1 VH with S27Y, N52H, E55D, S105Y
VL: B1 VL with I33L, R52K, I54L, S90Y
B13: Mutation 1-24 (antibody, mouse IgG2b, kappa, V domains shown)
VH: B1 VH with N52H, E55D
VL: B1 VL with I33L, R52K, I54L, S90T
B14: Mutation 1-22 (antibody, mouse IgG2b, kappa, V domains shown)
VH: B1 VH with N52H, I60L, K98R, D101E, S105Y
VL: B1 VL with S26T, I33L, I54L, S90T
B15: Mutation 1-50 (antibody, mouse IgG2b, kappa, V domains shown)
VH: B1 VH with S27T, N52H, E55D, I60V, D101E
VL: B1 VL with L29V, I33L, R52K
B16: Mutation 1-23 (antibody, mouse IgG2b, kappa, V domains shown)
VH: B1 VH with S27Y, N52H, I60V, K98R, D101E, S105T
VL: B1 VL with I33L, I54V
B17: WT 1-3 (antibody, mouse IgG2b, kappa, V domains shown)
VH: B1 VH with W33F, K98R, D101E, S105Y, F107W
VL: B1 VL with S26T, I54L, S90T, T94S
B18: Mutation 1-33 (antibody, mouse IgG2b, kappa, V domains shown)
VH: B1 VH with S27T, N52H, K98R, D101E
VL: B1 VL with L29V, I33L, I54L, S90T
B19: Mutation 1-51 (antibody, mouse IgG2b, kappa, V domains shown)
VH: B1 VH with N52H, D101E, S105Y
VL: B1 VL with S26T, L29V, I33L, I54L, S90T
B20: Mutation 1-26 (antibody, mouse IgG2b, kappa, V domains shown)
VH: B1 VH with S27Y, N52H, E55D, I60V, S105T
VL: B1 VL with L29V, I33L, R52K, I54V, S90Y
B21: Mutation 1-30 (antibody, mouse IgG2b, kappa, V domains shown)
VH: B1 VH with N52H, E55D, K98R
VL: B1 VL with S26T, L29I, I33L, R52K, I54L, S90Y
B22: Mutation 1-27 (antibody, mouse IgG2b, kappa, V domains shown)
VH: B1 VH with S27Y, N52H, D101E
VL: B1 VL with S26T, L29V, I33L, I54L
B23: Mutation 1-40 (antibody, mouse IgG2b, kappa, V domains shown)
VH: B1 VH with S27T, N52H, I60L, D101E, S105Y
VL: B1 VL with L29I, I33L, S90T
B24: Mutation 1-53 (antibody, mouse IgG2b, kappa, V domains shown)
VH: B1 VH with N52H, I60V, K98R
VL: B1 VL with S26T, L29I, I33L, S90Y
B25: Mutation 1-37 (antibody, mouse IgG2b, kappa, V domains shown)
VH: B1 VH with N52H, E55D, I60L, S105Y
VL: B1 VL with S26T, I33L, R52K, S90Y
B26: Mutation 1-31 (antibody, mouse IgG2b, kappa, V domains shown)
VH: B1 VH with S27Y, N52H, E55D, I60L, K98R, S105Y
VL: B1 VL with L29I, I33L, R52K, I54V, S90T
B27: Mutation 1-39 (antibody, mouse IgG2b, kappa, V domains shown)
VH: B1 VH with N52H, D101E
VL: B1 VL with S26T, L29V, I33L, I54V, S90Y
B28: Mutation 1-42 (antibody, mouse IgG2b, kappa, V domains shown)
VH: B1 VH with S27Y, N52H, E55D, K98R
VL: B1 VL with S26T, L29I, I33L, R52K, S90T
B29: Mutation 1-46 (antibody, mouse IgG2b, kappa, V domains shown)
VH: B1 VH with S27T, N52H, I60L, K98R, D101E, S105T
VL: B1 VL with S26T, I33L, I54V, S90Y
B30: Mutation 1-28 (antibody, mouse IgG2b, kappa, V domains shown)
VH: B1 VH with S27T, N52H, I60L, D101E, S105Y
VL: B1 VL with L29I, I33L, S90Y
B31: Mutation 1-43 (antibody, mouse IgG2b, kappa, V domains shown)
VH: B1 VH with S27T, N52H, E55D, I60L, K98R, S105Y
VL: B1 VL with L29I, I33L, R52K, I54V
B32: Mutation 1-29 (antibody, mouse IgG2b, kappa, V domains shown)
VH: B1 VH with N52H, I60V, D101E, S105T
VL: B1 VL with S26T, L29I, I33L, I54V, S90T
B33: Mutation 1-20 (antibody, mouse IgG2b, kappa, V domains shown)
VH: B1 VH with N52H, E55D, I60V, K98R, S105T
VL: B1 VL with S26T, L29V, I33L, R52K, I54V, S90T
B34: Mutation 1-47 (antibody, mouse IgG2b, kappa, V domains shown)
VH: B1 VH with S27T, N52H, I60V
VL: B1 VL with I33L, I54L, S90T
B35: WT 1-1 (antibody, mouse IgG2b, kappa, V domains shown)
VH: B1 VH with S27T, W33F, E55D, K98R, F107W
VL: B1 VL with S26T, L29I, R52K, I54L, S90T, T94S
B36: Mutation 1-41 (antibody, mouse IgG2b, kappa, V domains shown)
VH: B1 VH with S27Y, N52H, I60V, D101E, S105T
VL: B1 VL with S26T, L29I, I33L, I54L
B37: WT 1-4 (antibody, mouse IgG2b, kappa, V domains shown)
VH: B1 VH with S27Y, W33F, E55D, I60V, S105T, F107W
VL: B1 VL with L29V, R52K, I54V, S90Y, T94S
B38: Mutation 1-44 (antibody, mouse IgG2b, kappa, V domains shown)
VH: B1 VH with N52H, E55D, I60V, K98R, D101E
VL: B1 VL with S26T, L29V, I33L, R52K, I54L, S90Y
B39: Mutation 1-55 (antibody, mouse IgG2b, kappa, V domains shown)
VH: B1 VH with S27Y, N52H, E55D, I60L, K98R, S105T
VL: B1 VL with L29I, I33L, R52K, S90Y
B40: Mutation 1-32 (antibody, mouse IgG2b, kappa, V domains shown)
VH: B1 VH with S27T, N52H, E55D, I60V, K98R, S105T
VL: B1 VL with S26T, L29V, I33L, R52K
B41: Mutation 1-49 (antibody, mouse IgG2b, kappa, V domains shown)
VH: B1 VH with N52H, E55D, I60L, S105T
VL: B1 VL with S26T, I33L, R52K, I54V, S90T
B42: Mutation 1-45 (antibody, mouse IgG2b, kappa, V domains shown)
VH: B1 VH with S27Y, N52H, K98R, D101E, S105Y
VL: B1 VL with L29V, I33L
B43: Mutation 1-21 (antibody, mouse IgG2b, kappa, V domains shown)
VH: B1 VH with S27T, N52H, K98R, D101E
VL: B1 VL with L29V, I33L, S90Y

biological target: Pan-species-specific antigen Plasmodium Lactate DeHydrogenase (Pan-PLDH) protein; assay: indirect ELISA, recombinant MA protein coated 1 ug/ml, antibody 8 ng/ml

OD value at 450 nm (refer to 630 nm)	Binder
1.01 OD	B1

biological target: Pan-species-specific antigen Plasmodium Lactate DeHydrogenase (Pan-PLDH) protein; assay: indirect ELISA, recombinant MA protein coated 1 ug/ml, antibody 40 ng/ml

OD value at 450 nm (refer to 630 nm)	Binder
2.01 OD	B1

biological target: Pan-species-specific antigen Plasmodium Lactate DeHydrogenase (Pan-PLDH) protein; assay: indirect ELISA, recombinant MA protein coated 1 ug/ml, antibody 1.6 ng/ml

OD value at 450 nm (refer to 630 nm)	Binder
0.274 OD	B1

biological target: Pan-species-specific antigen Plasmodium Lactate DeHydrogenase (Pan-PLDH) protein; assay: indirect ELISA, recombinant MA protein coated 1 ug/ml, antibody 200 ng/ml

OD value at 450 nm (refer to 630 nm)	Binder
2.14 OD	B1

biological target: Pan-species-specific antigen Plasmodium Lactate DeHydrogenase (Pan-PLDH) protein; assay: indirect ELISA, recombinant MA protein coated 1 ug/ml, antibody 0.32 ng/ml

OD value at 450 nm (refer to 630 nm)	Binder
0.255 OD	B1

biological target: Pan-species-specific antigen Plasmodium Lactate DeHydrogenase (Pan-PLDH) protein; assay: indirect ELISA, recombinant MA protein coated 1 ug/ml, antibody 1000 ng/ml

OD value at 450 nm (refer to 630 nm)	Binder
2.23 OD	B1

biological target: Pan-species-specific antigen Plasmodium Lactate DeHydrogenase (Pan-PLDH) protein; assay: indirect ELISA, recombinant MA protein coated 1 ug/ml, antibody 0 ng/ml (blank)

OD value at 450 nm (refer to 630 nm)	Binder
0.053 OD	B1

biological target: Pan-species-specific antigen Plasmodium Lactate DeHydrogenase (Pan-PLDH) protein; assay: indirect ELISA at four coating concentrations, KD calculated from half-maximal OD

Kd	Binder
0.424 nM	B2
0.516 nM	B3
0.565 nM	B4
0.639 nM	B5
0.659 nM	B6
0.329 nM	B7
0.613 nM	B8
0.493 nM	B9
0.633 nM	B10
0.518 nM	B11
0.336 nM	B12
0.402 nM	B13
0.378 nM	B14
0.0879 nM	B15
0.319 nM	B16
0.485 nM	B17
0.372 nM	B18
0.526 nM	B19
0.374 nM	B20
0.198 nM	B21
0.427 nM	B22

Kd	Binder
0.439 nM	B23
0.717 nM	B24
0.52 nM	B25
0.514 nM	B26
0.55 nM	B27
0.545 nM	B28
0.332 nM	B29
0.759 nM	B30
0.53 nM	B31
0.411 nM	B32
0.204 nM	B33
0.454 nM	B34
0.759 nM	B35
0.743 nM	B36
0.85 nM	B37
0.318 nM	B38
0.559 nM	B39
0.329 nM	B40
0.342 nM	B41
0.415 nM	B42
0.655 nM	B43

From patent US20210395394A1
